Reference: the DeepSol protein solubility set

assay: soluble on expression in E. coli; label from the status in PepcDB or PDB records

Sequence	soluble on expression in E. coli
MGEKLLMKGNEAIAEAALRAGCRHYFGYPITPQTEIAHYLAKKMPEVGGTFIQAESEVAAINMVYGAASAGARVLTSSSSPGISLKQEGLSYLAGAELPAVVVNIVRCGPGLGGILPAQGDYFQAVKGGGHGDYKMVVLAPSSVQELYELTVEAFNIADRYRIVSMIMGDGILGQMMEAVEFKDVENIEKIDKPWATTGTQMKREHNTITSIYIQPEVLEKHNQKLQAKYRLIEERETRVESYNCENADIIVTAFGTVARIVKNVIKMAEKEGIKVGLIRPITLWPFPTKEYEKYADVPKAFLTVELNAGQMVEDVRLAVNGKKPVYFHGRMGGMIPTQKEILDKIKEILNN	not soluble
MGHHHHHHMAGGGKHTPTPKAIIHQKFGAKASYTVEEVHDSSQSGCPGLAIPQKGPCLYRCHLQLPEFSVVSNVFKKKKDSEQSAAELALDKLGIRPQNDDLTVDEARDEIVGRIKYIFSDEFLSAEHPLGAHLRAALRRDGERCGSVPVSVIATVDAKINSRCKIINPSVESDPFLAISYVMKAAAKLADYIVASPHGLRRKNAYPSEIVEALATHVSDSLHSREVAAVYIPCIDEEVVELDTLYISSNRHYLDSIAERLGLKDGNQVMISRMFGKASCGSECRLYSEIPKKYLDNSSDASGTSNEDSSHIVKSRNARASYICGQDIHGDAILASVGYRWKSDDLDYDDVTVNSFYRICCGMSPNGIYKISRQAVIAAQLPFAFTTKSNWRGPLPREILGLFCHQHRLAEPILSSSTAPVKSLSDIFRSHKKLKVSGVDDANENLSRQKEDTPGLGHGFRCEVKIFTKSQDLVLECSPRKFYEKENDAIQNASLKALLWFSKFFADLDVDGEQSCDTDDDQDTKSSSPNVFAAPPILQKEHSSESKNTNVLSAEKRVQSITNGSVVSICYSLSLAVDPEYSSDGESPREDNESNEEMESEYSANCESSVEPIESNEEIEFEVGTGSMNPHIESEVTQMTVGEYASFKMTPPDAAEALILAVGSDTVRIRSLLSERPCLNYNILLLGVKGPSEERMEAAFFKPPLSKQRVEYALKHIRESSASTLVDFGCGSGSLLDSLLDYPTSLQTIIGVDISPKGLARAAKMLHVKLNKEACNVKSATLYDGSILEFDSRLHDVDIGTCLEVIEHMEEDQACEFGEKVLSLFHPKLLIVSTPNYEFNTILQRSTPETQEENNSEPQLPKFRNHDHKFEWTREQFNQWASKLGKRHNYSVEFSGVGGSGEVEPGFASQIAIFRREASSVENVAESSMQPYKVIWEWKKEDVEKKKTDL	soluble
MGSDKIHHHHHHMKASDFREWVGKITQLSRGQKEQTKHKLGGMVPRIEVAKWLESSFEPICPVCQSNHFYRWGYQAGLQRFYCRMCKHTFTAISGTPLARLRHKDQWLNYSAALIEGLTVRASARQCRIDKNTSFRWRHRFLTLPAAAKANHLEGIVEADETFFPVSCKGQRQLDRPPRKRGKQIHMRGTGKDQVPVLIVRDRSGATADFMLDAIDRKAIEPPLRTVLEKDVIFCSDGAAVYRSVARSLGITHRPVNLAAGVRVIAGVYHIQNVNAYHSRLKQWMKRFHGVATRYLENYLGWFRWLDQQENLSSPIVPLQAALGRENQFQLLTNT	not soluble
MKKVLIAALIAGFSLSATAAQTIRFATEASYPPFESMDANNKIVGFDVDLANALCKEIDASCTFTNQAFDSLIPSLKFRRFDAVMAGMDITPEREKQVLFTTPYYDNSALFVGQQGKYTSVDQLKGKKVGVQNGTTHQKFIMDKHPEITTVPYDSYQNAKLDLQNGRIDAVFGDTAVVTEWLKANPKLAPVGDKVTDKDYFGTGLGIAVRQGNTELQQKFNTALEKVKKDGTYETIYNKWFQK	not soluble
YDKEFGGFGGAPKFPMAMNLSFLLRYGQRYGDGEAVAMATDTLTAMAQGGIWDHLGGGFHRYTVDGRWLVPHFEKMLYDQALCTLALVEAAQVTGNSVFRELAKETCGFVLRELSAPAGGFYSALDADSEGREGACYLWTPAQVRDILGVADGELFCRLYAVTAWGNFEGANVLHLPLAPDAFARDEGVDPLRLQEKIAQWHILLLEARERRPRPFRDEKIITGWNGLMIAALARTFLICGDELLLEGAERAVRRVCIDLRTPAGRLVRSCHRGEASGPGFLEDYAFFIRGLLELHEATLDPRHLALARSLAHDMLRLFGDSGGGLFDTGSDAETILVRGKG	not soluble
MSADENNLIWIDLEMTGLDPERDRIIEIATLVTDASLNILAEGPTIAVHQSDAQLALMDDWNVRTHTGSGLVDRVKASTMGERDAELATIEFLKTWVPAGKSPICGNSIGQDRRFLFKYMPELEAYFHYRYLDVSTLKELARRWKPEILAGFTKQGTHQAMDDIRESVAELAYYREHFIKL	not soluble
MGSDKIHHHHHHLRIEQKLWRENTGWSDLSPQVDGLMPQLLIVFGTRKYLQEEVRFEEIKGFYPGAHIFGCSTAGEICATNVFEDALAITALEFEHTRIESRQIHLSQVQNSFQAGEYLASSLTHDDLSHVLVLSDGLHVNGSELLQGLTSSLPPGIAITGGMAGDGVSFEETLVFLDAPPTPDTIAVLGFYGNHLRVGYGSMGGFDPFGPKRLITRSAANVLYEMDGRSALELYKKYLGEHAEGLPATGVFFPLSISGEEVAESLVRTILAVNEEEQSLTFGGDVPTGAYARMMKANLDRLIDGAVTAAESILSVVNNASPELAILISCFGRRSILKQRTEEEVEAVSDVFGSGCMLTGFYSYGEISPFKPGEKPEFHNQTMTITTFREV	not soluble
MAHHHHHHMAACRSTPLTSSPVACEQAHRQPTIVDRDYEASKYWKSHRCRRIPKATGLTAVLITNPGLSVFTHQPHSRTNTVQGRKSCQGQQTTGRQLQISGNRAVADSVPRSQKNSVTAAWSV	not soluble
MPKASQETKGLGSYDPKSATEKKFVITHRIKNISTLNIGNTYTSDVEDHFGFLWHLSYIYDGRFLRTTLNIDVNGRSALWSVGMKVRHMFVTKNGADHFHNSTDHVFSQEHNYGLTAITFFEDIKNKIFDDDMVYVDVEVTITKTSGFDRKKLRNFDTPENDWHVVLVAGGQKFYARTVVICNPNTDICELDVARGTEIVLENEDPLDLQIFLEALHGEDVISDTTLEIILLLAIKYRAIEIFSKCEKWLLEGSKMSPRKQLQMAIRCSFWELEQKCLSELKTKQDIQAVLPANLMSLDPNMVLTLFEKLLTVT	soluble
MSTPRIVVGVSGGVDSSVAAWKLAQQGEPIAGLFMQNWADDGSGDCRAEDDRRDAVAVCGVLGIPFHFRDFSGEYWSDVFEHFLAEYAAGRTPNPDVLCNREVKFKHFLDAAQALGAERIATGHYAQVAHRGGRWRLLRGADRGKDQSYFLHQLGQTQLAATLFPIGDLEKSTLRRIAQDAGLPTHAKKDSTGICFIGERDFREFLGRYLPARTGEIRDPQGQRIAEHPGVFYFTLGQREGLNIGGVRGRAAAPWYVVGKDVANNVLYVDQDRDSPLLQSRWLQSEQAHWVTGAPPARRFSCTAQTRYRQPDESCTVDVQDDGSVQVRFERPQRAVTPGQSLVLYDGEECLGGAVIAATDAPLERQLAGSSFSSEVVALEHHHHHH	not soluble
